Assay [1] concerns the target Human GUCY2c on tumor cells (T84, HT55) (human, UniProt P25092 24-1073). As to the kind of experiment: cell-based or functional assay.
For the next assay, the target named is T1, Human GUCY2C ECD-muIgG2a (human).
T1 construct: also called human GUCY2c ECD-mouse IgG2a Fc fusion protein; huGUCY2c-mIgG2a
As to the kind of experiment: sandwich ELISA: CD3 epsilon-delta coated, GUCY2c ECD-mIgG2a Fc in solution. A general note: ELISA stands for enzyme-linked immunosorbent assay.

In assay [2] the target is T2, Purified human GUCY2c ECD (recombinant, construct not stated) (human, UniProt P25092 24-430).
T2 construct: also called recombinant human GUCY2c; recombinant GUCY2c protein
As to the kind of experiment: direct ELISA, coated GUCY2c ECD.

For a further assay, the target named is T3, Human CD3 epsilon-delta (human).
T3 construct: Single-chain epsilon-linker-delta with His6; also called huCD3
T3 chain: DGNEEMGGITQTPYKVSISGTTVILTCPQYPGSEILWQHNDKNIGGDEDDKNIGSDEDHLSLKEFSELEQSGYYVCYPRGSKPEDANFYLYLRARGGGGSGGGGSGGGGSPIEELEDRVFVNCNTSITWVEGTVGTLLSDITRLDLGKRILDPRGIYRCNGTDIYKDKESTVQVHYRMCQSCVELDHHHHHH
The assay can be described thus: direct ELISA, coated CD3 epsilon-delta.

The target in assay [3] is T4, Human GUCY2C full length (SEQ ID NO: 224), recombinant protein (human, UniProt P25092 24-430, limits assumed).
T4 construct: also called huGUCY2C; biotinylated human GUCY2c
As to the kind of experiment: SPR, GUCY2c directly immobilized, 25 C.

A value given as a limit tells only on which side of the number the result lay.

T1 sequence (chain, as listed by the source limits assumed): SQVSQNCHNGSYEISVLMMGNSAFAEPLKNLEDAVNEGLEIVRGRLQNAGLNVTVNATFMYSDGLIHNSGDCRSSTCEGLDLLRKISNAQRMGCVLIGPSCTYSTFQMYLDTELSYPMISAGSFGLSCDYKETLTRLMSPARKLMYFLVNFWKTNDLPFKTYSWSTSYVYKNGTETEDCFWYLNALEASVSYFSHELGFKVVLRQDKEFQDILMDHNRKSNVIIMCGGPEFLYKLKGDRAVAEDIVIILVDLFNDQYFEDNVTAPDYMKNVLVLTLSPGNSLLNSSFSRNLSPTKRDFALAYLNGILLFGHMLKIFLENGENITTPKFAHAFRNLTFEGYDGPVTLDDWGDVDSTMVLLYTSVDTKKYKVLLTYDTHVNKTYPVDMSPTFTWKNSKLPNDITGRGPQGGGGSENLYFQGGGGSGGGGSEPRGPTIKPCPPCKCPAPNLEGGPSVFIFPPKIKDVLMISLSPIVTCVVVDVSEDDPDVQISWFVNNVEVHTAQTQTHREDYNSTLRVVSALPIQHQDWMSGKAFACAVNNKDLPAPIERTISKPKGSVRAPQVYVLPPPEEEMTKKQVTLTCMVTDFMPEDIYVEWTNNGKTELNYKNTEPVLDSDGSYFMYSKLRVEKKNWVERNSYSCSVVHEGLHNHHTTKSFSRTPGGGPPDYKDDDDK
T2 sequence (P25092 24-430 limits assumed): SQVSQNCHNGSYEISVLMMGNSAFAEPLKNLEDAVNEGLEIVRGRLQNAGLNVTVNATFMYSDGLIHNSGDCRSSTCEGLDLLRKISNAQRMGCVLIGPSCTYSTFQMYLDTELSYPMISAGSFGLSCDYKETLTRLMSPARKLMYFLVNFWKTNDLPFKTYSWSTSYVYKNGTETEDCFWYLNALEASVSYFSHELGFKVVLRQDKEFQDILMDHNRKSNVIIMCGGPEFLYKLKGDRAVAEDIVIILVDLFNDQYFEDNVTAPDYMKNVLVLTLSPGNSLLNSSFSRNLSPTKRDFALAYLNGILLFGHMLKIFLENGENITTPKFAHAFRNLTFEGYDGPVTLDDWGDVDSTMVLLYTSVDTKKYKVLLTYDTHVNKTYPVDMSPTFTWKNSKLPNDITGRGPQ
Chain of Human GUCY2c on tumor cells (T84, HT55) (P25092 24-1073 limits assumed): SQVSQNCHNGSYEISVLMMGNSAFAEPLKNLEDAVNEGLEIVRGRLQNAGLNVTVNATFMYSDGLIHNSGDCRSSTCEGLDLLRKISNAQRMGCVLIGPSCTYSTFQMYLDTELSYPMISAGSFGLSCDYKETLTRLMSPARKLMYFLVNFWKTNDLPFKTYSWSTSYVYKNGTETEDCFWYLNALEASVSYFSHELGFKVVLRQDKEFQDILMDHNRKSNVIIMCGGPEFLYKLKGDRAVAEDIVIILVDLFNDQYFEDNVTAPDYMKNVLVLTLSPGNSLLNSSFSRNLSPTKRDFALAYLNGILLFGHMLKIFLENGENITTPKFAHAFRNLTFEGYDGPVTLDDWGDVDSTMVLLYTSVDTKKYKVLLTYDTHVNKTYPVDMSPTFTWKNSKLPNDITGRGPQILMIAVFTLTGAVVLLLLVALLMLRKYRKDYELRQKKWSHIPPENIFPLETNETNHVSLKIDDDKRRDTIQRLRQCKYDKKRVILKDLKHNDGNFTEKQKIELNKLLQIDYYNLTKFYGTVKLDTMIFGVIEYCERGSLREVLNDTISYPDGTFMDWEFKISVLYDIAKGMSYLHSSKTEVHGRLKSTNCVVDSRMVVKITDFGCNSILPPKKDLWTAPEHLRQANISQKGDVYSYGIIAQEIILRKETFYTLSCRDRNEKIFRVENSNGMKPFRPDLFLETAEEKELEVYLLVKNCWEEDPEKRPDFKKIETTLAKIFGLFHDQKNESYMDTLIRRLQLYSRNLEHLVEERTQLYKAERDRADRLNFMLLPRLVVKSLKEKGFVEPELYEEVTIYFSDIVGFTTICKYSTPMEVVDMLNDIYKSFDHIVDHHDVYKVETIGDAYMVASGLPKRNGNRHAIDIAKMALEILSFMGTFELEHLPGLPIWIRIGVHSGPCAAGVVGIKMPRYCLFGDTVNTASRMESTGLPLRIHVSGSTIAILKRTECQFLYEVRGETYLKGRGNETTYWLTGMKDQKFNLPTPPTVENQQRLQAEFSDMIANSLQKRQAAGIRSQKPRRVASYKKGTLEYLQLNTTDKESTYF
T4 sequence (P25092 24-430 F281L limits assumed): as the sequence (P25092 24-430 limits assumed) above, with F258L counted along it

B1: GUCY2C-0104 (bispecific antibody)
chain 1: DIVMTQSPASLAVSLGQRATISCRASKGVTTSGYSYMHWYQQKPGQPPKLLIYLASNLESGVPARFSGSGSGTDFTLNIHPVEEEDAATYYCQHSREFPLTFGAGTKLELKGGGSGGGGEVQLVESGGGLVQPGGSLRLSCAASGFTFSDYYMTWVRQAPGKGLEWVAFIRNRARGYTSDHNPSVKGRFTISRDNAKNSLYLQMNSLRAEDTAVYYCARDRPSYYVLDYWGQGTTVTVSSGCPPCPAPEAAGAPSVFLFPPKPKDTLMISRTPEVTCVVVDVSHEDPEVKFNWYVDGVEVHNAKTKPREEQYNSTYRVVSVLTVLHQDWLNGKEYKCKVSNKALPAPIEKTISKAKGQPREPQVCTLPPSREEMTKNQVSLWCLVKGFYPSDIAVEWESNGQPENNYKTTPPVLDSDGSFFLYSKLTVDKSRWQQGNVFSCSVMHEALHNHYTQKSLSLSPG
chain 2: DIVMTQSPDSLAVSLGERATINCKSSQSLFNVRSRKNYLAWYQQKPGQPPKLLISWASTRESGVPDRFSGSGSGTDFTLTISSLQAEDVAVYYCKQSYDLFTFGSGTKLEIKGGGSGGGGEVQLQQSGAELVKPGASVKLSCTASGFNIKDTYIHWVKQRPEQGLEWIGRIDPANGNANYDPKFQGKATITADTSSNTAYLQLSSLTSEDTAVFYCSSLGTGTYWGQGTTLTVSSGCPPCPAPEAAGAPSVFLFPPKPKDTLMISRTPEVTCVVVDVSHEDPEVKFNWYVDGVEVHNAKTKPREEQYNSTYRVVSVLTVLHQDWLNGKEYKCKVSNKALPAPIEKTISKAKGQPREPQVYTLPPCREEMTKNQVSLSCAVKGFYPSDIAVEWESNGQPENNYKTTPPVLDSDGSFFLVSKLTVDKSRWQQGNVFSCSVMHEALHNHYTQKSLSLSPG
In general, EC50 refers to the midpoint of the concentration-response curve. Usually Kd stands for the concentration at which binding is half-saturated. What is called koff is a measure of how fast the partners let go of each other. The kon is a measure of how fast the partners come together. Regarding B1, the “T84 tumor cell EC50 (T cell cytotoxicity, E:T 10:1)” value (from here on “T84 tumor cell EC50”) in assay [1] was determined as 14.9 nM. The molecule further returned an EC50 with Human GUCY2C ECD-muIgG2a of 2.48 nM. Also, the concentration for a half-maximal effect (EC50) in assay [2] was greater than 100 nM. Moreover, in the assay with Human CD3 epsilon-delta, the EC50 was 0.418 nM. Further, in assay [3], the dissociation constant (Kd) was 26.1 nM, the off-rate (koff) is 0.00386 s⁻¹ and the kon is 148000 M⁻¹ s⁻¹.

B2: GUCY2C-0077 (bispecific antibody)
chain 1: DIVLTQSPASLAVSLGQRATISCRASESVDNFDISFMNWFQQKPGQPPKLLIYAASNQGSGVPARFSGSGSGTDFSLNIHPMEEDDTAMYFCQQSKEVPYTFGGGTKLEIKGGGSGGGGEVQLVESGGGLVQPGGSLRLSCAASGFTFSDYYMTWVRQAPGKGLEWVAFIRNRARGYTSDHNPSVKGRFTISRDNAKNSLYLQMNSLRAEDTAVYYCARDRPSYYVLDYWGQGTTVTVSSGCPPCPAPEAAGAPSVFLFPPKPKDTLMISRTPEVTCVVVDVSHEDPEVKFNWYVDGVEVHNAKTKPREEQYNSTYRVVSVLTVLHQDWLNGKEYKCKVSNKALPAPIEKTISKAKGQPREPQVCTLPPSREEMTKNQVSLWCLVKGFYPSDIAVEWESNGQPENNYKTTPPVLDSDGSFFLYSKLTVDKSRWQQGNVFSCSVMHEALHNHYTQKSLSLSPG
chain 2: DIVMTQSPDSLAVSLGERATINCKSSQSLFNVRSRKNYLAWYQQKPGQPPKLLISWASTRESGVPDRFSGSGSGTDFTLTISSLQAEDVAVYYCKQSYDLFTFGSGTKLEIKGGGSGGGGEVQLQQSGAELARPGASVKLSCKASGYTFTKYWMQWIKQRPGQGLEWIGAIYPGDGFTTYTQKFKGKATLTADKSSNTAYMQLSSLASEDSAVYYCARRNYGRTYGGDYWGQGTSVTVSSGCPPCPAPEAAGAPSVFLFPPKPKDTLMISRTPEVTCVVVDVSHEDPEVKFNWYVDGVEVHNAKTKPREEQYNSTYRVVSVLTVLHQDWLNGKEYKCKVSNKALPAPIEKTISKAKGQPREPQVYTLPPCREEMTKNQVSLSCAVKGFYPSDIAVEWESNGQPENNYKTTPPVLDSDGSFFLVSKLTVDKSRWQQGNVFSCSVMHEALHNHYTQKSLSLSPG
Take B2: the “T84 tumor cell EC50” value in assay [1] was 28.7 nM. Moreover, the half-maximal effective concentration (EC50) with Human GUCY2C ECD-muIgG2a turned out to be 7.5 nM; in assay [2], 27.5 nM; with Human CD3 epsilon-delta it was 0.887 nM. Besides, the Kd in assay [3] amounted to 160 nM. Besides, in assay [3], the koff was 0.0224 s⁻¹. Moreover, in assay [3], the kon was 143000 M⁻¹ s⁻¹.

B3: GUCY2C-0078 (bispecific antibody)
chain 1: DIVLTQSPASLAVSLGQRATISCRAGESVDNFDISFMNWFQQKPGQPPKLLIYAASNQGSGVPARFSGSGSGTDFSLNIHPMEEDDTAMYFCQQSKEVPYTFGGGTKLEIKGGGSGGGGEVQLVESGGGLVQPGGSLRLSCAASGFTFSDYYMTWVRQAPGKGLEWVAFIRNRARGYTSDHNPSVKGRFTISRDNAKNSLYLQMNSLRAEDTAVYYCARDRPSYYVLDYWGQGTTVTVSSGCPPCPAPEAAGAPSVFLFPPKPKDTLMISRTPEVTCVVVDVSHEDPEVKFNWYVDGVEVHNAKTKPREEQYNSTYRVVSVLTVLHQDWLNGKEYKCKVSNKALPAPIEKTISKAKGQPREPQVCTLPPSREEMTKNQVSLWCLVKGFYPSDIAVEWESNGQPENNYKTTPPVLDSDGSFFLYSKLTVDKSRWQQGNVFSCSVMHEALHNHYTQKSLSLSPG
chain 2: DIVMTQSPDSLAVSLGERATINCKSSQSLFNVRSRKNYLAWYQQKPGQPPKLLISWASTRESGVPDRFSGSGSGTDFTLTISSLQAEDVAVYYCKQSYDLFTFGSGTKLEIKGGGSGGGGEVQLQQSGAELARPGASVKLSCKASGYTFTKYWMQWIKQRPGQGLEWIGAIYPGDGFTTYTQKFKGKATLTADKSSNTAYMQLSSLASEDSAVYYCARRNYGRTYGGDYWGQGTSVTVSSGCPPCPAPEAAGAPSVFLFPPKPKDTLMISRTPEVTCVVVDVSHEDPEVKFNWYVDGVEVHNAKTKPREEQYNSTYRVVSVLTVLHQDWLNGKEYKCKVSNKALPAPIEKTISKAKGQPREPQVYTLPPCREEMTKNQVSLSCAVKGFYPSDIAVEWESNGQPENNYKTTPPVLDSDGSFFLVSKLTVDKSRWQQGNVFSCSVMHEALHNHYTQKSLSLSPG
For the molecule B3, the “T84 tumor cell EC50” value in assay [1] worked out at 7.8 nM. The EC50 stood at 9.68 nM with Human GUCY2C ECD-muIgG2a, 23.5 nM in assay [2] and 1.45 nM with Human CD3 epsilon-delta.

B4: GUCY2C-0105 (bispecific antibody)
chain 1: DIVMTQSPSSLAVSVGEKVTVSCKSSQSLLYSSNQKNYLAWYQQRPGQSPKLLIYWASTRESGVPDRFTGSGSGTDFTLSISSVKAEDLAVYYCQQYYSYPTFGGGTKLEIKGGGSGGGGEVQLVESGGGLVQPGGSLRLSCAASGFTFSDYYMTWVRQAPGKGLEWVAFIRNRARGYTSDHNPSVKGRFTISRDNAKNSLYLQMNSLRAEDTAVYYCARDRPSYYVLDYWGQGTTVTVSSGCPPCPAPEAAGAPSVFLFPPKPKDTLMISRTPEVTCVVVDVSHEDPEVKFNWYVDGVEVHNAKTKPREEQYNSTYRVVSVLTVLHQDWLNGKEYKCKVSNKALPAPIEKTISKAKGQPREPQVCTLPPSREEMTKNQVSLWCLVKGFYPSDIAVEWESNGQPENNYKTTPPVLDSDGSFFLYSKLTVDKSRWQQGNVFSCSVMHEALHNHYTQKSLSLSPG
chain 2: DIVMTQSPDSLAVSLGERATINCKSSQSLFNVRSRKNYLAWYQQKPGQPPKLLISWASTRESGVPDRFSGSGSGTDFTLTISSLQAEDVAVYYCKQSYDLFTFGSGTKLEIKGGGSGGGGEVQLQQSGPELVKPGASVKISCKASGYSFTDYIMLWVKQSHGKSLEWIGNSNPYYGSTSYNLKFKGKATLTVDKSSSTAYMHLNSLTSEDSAVYYCARSGYYGSSPYWYFDVWGAGTTVTVSSGCPPCPAPEAAGAPSVFLFPPKPKDTLMISRTPEVTCVVVDVSHEDPEVKFNWYVDGVEVHNAKTKPREEQYNSTYRVVSVLTVLHQDWLNGKEYKCKVSNKALPAPIEKTISKAKGQPREPQVYTLPPCREEMTKNQVSLSCAVKGFYPSDIAVEWESNGQPENNYKTTPPVLDSDGSFFLVSKLTVDKSRWQQGNVFSCSVMHEALHNHYTQKSLSLSPG
notes: chimeric CD3-GUCY2c diabody-Fc, CD3-0004
In the case of B4, the “T84 tumor cell EC50” value in assay [1] came to 7.51 nM. The EC50 in the assay with Human GUCY2C ECD-muIgG2a is 5.04 nM; in assay [2], 79.8 nM; with Human CD3 epsilon-delta it was 0.355 nM.

For the origin of these results see patent US20230340151A1 (Pfizer, published 2023).
